According to publication doi:10.1101/2025.09.03.673926:
Several values for one entry are separate records, joined by “and”; a condition that tells them apart may be missing. Identical values can stand only once.

What was measured:
[1] = molecular target: TgSNF2L (aa 1 to 1556) (Toxoplasma gondii); assay: SEC-MALS
[2] = molecular target: TgSNF2L (aa 1 to 1556) (Toxoplasma gondii); assay: mass photometry
[3] = molecular target: TgSNF2L Hydra domain (886-1057) (Toxoplasma gondii); assay: SEC-MALS
[4] = molecular target: TgSNF2L Hydra domain (886-1057) (Toxoplasma gondii); assay: native gel or EMSA
[5] = molecular target: TgSNF2L Hydra domain (886-1057) (Toxoplasma gondii); assay: mass photometry
[6] = molecular target: TgSNF2LΔHydra (aa 1 to 1556 with an internal deletion between aa 880 and 1040) (Toxoplasma gondii); assay: SEC-MALS
[7] = molecular target: TgSNF2LΔHydra (aa 1 to 1556 with an internal deletion between aa 880 and 1040) (Toxoplasma gondii); assay: mass photometry

TgSNF2L (aa 1 to 1556) (enzyme) gave a stoichiometry N [1] of 4, a percent of particles dimeric [2] of 11% and a percent of particles monomeric [2] of 22%. It also gave a percent of particles tetrameric and bigger [2] of 59%.
With “TgSNF2L Hydra domain (886-1057) (domain or fragment)” the stoichiometry N [3] was 10, the stoichiometry N [4] was 10 and 20 and the stoichiometry N [5] was 10.
Substance “TgSNF2LΔHydra (aa 1 to 1556 with an internal deletion between aa 880 and 1040) (enzyme)” has a stoichiometry N [6] of 2, a percent of particles monomeric and dimeric [7] of 71% and a percent of particles tetrameric and higher [7] of 19%.
